Values joined by “and” are separate entries in the source; they are usually repeats but may differ in a detail not shown here. Equal entries are not always repeated.

To fix the notation:
T1: GST-Ppz1^Cter (S. cerevisiae, UniProt P26570 345-692)
T1 construct: Ser/Thr protein phosphatase Ppz1, S. cerevisiae, carboxyl terminal domain, Ppz1 (Δ1–344), expressed from pGEX6P1-Ppz1^Cter; also called Ppz1 (Δ1–344); Ppz1 carboxyl terminal domain
T1 sequence (looked up): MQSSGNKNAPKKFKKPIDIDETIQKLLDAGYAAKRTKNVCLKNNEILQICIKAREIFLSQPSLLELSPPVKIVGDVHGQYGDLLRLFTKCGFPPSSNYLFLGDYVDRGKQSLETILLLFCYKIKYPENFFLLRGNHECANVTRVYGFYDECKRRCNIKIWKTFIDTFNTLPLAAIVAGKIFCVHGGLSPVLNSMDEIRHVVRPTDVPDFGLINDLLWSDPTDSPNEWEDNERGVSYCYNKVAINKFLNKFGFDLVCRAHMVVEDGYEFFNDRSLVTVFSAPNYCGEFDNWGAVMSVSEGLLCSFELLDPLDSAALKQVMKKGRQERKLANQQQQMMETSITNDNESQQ

T2: 6 × His-Ppz1^Cter (S. cerevisiae, UniProt P26570 345-692)
T2 construct: Ser/Thr protein phosphatase Ppz1, S. cerevisiae, carboxyl terminal domain (Ppz1^Cter, Δ1–344), first MCS of pETDuet-1; also called N-terminally 6 × His-tagged version of Ppz1^Cter; source: E. coli BL21 (DE3), co-expressed with Hal3 from pETDuet-1; purified as the complex (Ni2+ IMAC, SEC); not shown: His6, N-terminal, kept
T2 sequence (looked up): T1 sequence (looked up)

B1: Cab3^PD (untagged) (domain or fragment, S. cerevisiae, UniProt P36076 305-508, looked up)
chain: DDKKFHILIGATGSVATIKVPLIIDKLFKIYGPEKISIQLIVTKPAEHFLKGLKMSTHVKIWREEDAWVFDAVNKNDTSLSLNLILHHELRKWADIFLIAPLSANTLAKLANGICNNLLTSVMRDWSPLTPVLIAPAMNTFMYINPMTKKHLTSLVQDYPFIQVLKPVEKVLICGDIGMGGMREWTDIVEIVRRRINEIRKARD
notes: Cab3 (previously Ykl088w), S. cerevisiae, PPCDC domain (PD), residues 305–508; Expected MW 23.3 kDa; could not be made on its own; also called PPCDC domain of Cab3; Ykl088w PD; source: E. coli BL21 (DE3), co-expressed from the second MCS of pETDuet-1 with 6 × His-Hal3^PD and/or 6 × His-Vhs3^PD; co-purified (Ni2+ IMAC)
B2: Hal3 (full length, obtained from GST-Hal3 by PreScission protease treatment) (natural protein, S. cerevisiae, UniProt P36024 1-562, looked up)
chain: MTAVASTSGKQDADHNQSIECPRFSRGQKEILLDHEDAKGKDSIINSPVSGRQSISPTLSNATTTTTKSIMNATGTSGAVVSNTPEPGLKRVPAVTFSDLKQQQKQDSLTQLKNDSERTKSPNSNPAPVSNSIPGNHAVIPNHTNTSRTTQLSGSPLVNEMKDYDPKKKDSALKIVDTMKPDKIMATSTPISRENNKVTAKAPTSITLRKEDAQDQANNVSGQINVRSTPEETPVKQSVIPSIIPKRENSKNLDPRLPQDDGKLHVLFGATGSLSVFKIKPMIKKLEEIYGRDRISIQVILTQSATQFFEQRYTKKIIKSSEKLNKMSQYESTPATPVTPTPGQCNMAQVVELPPHIQLWTDQDEWDAWKQRTDPVLHIELRRWADILVVAPLTANTLSKIALGLCDNLLTSVIRAWNPSYPILLAPSMVSSTFNSMMTKKQLQTIKEEMSWVTVFKPSEKVMDINGDIGLGGMMDWNEIVNKIVMKLGGYPKNNEEEDDDEDEEEDDDEEEDTEDKNENNNDDDDDDDDDDDDDDDDDDDDDDDDEDEDEAETPGIIDKHQ
notes: Hal3 (Sis2), S. cerevisiae, the entire protein, expressed from pGEX6P1-Hal3; also called Sis2; recombinant Hal3; source: E. coli BL21 (DE3), GST-Hal3 purified and digested with PreScission protease
B3: Hal3 (untagged, entire, co-expressed from pETDuet-1) (natural protein, S. cerevisiae, UniProt P36024 1-562, looked up)
chain: B2 chain
notes: Hal3 (Sis2), S. cerevisiae, the entire Hal3, second MCS of pETDuet-1; also called Sis2; untagged version of Hal3; source: E. coli BL21 (DE3), co-expressed with 6 × His-Ppz1^Cter from pETDuet-1; purified as the complex (Ni2+ IMAC, SEC)
B4: 6 × His-Hal3^PD (domain or fragment, S. cerevisiae, UniProt P36024 256-495, looked up)
chain: RLPQDDGKLHVLFGATGSLSVFKIKPMIKKLEEIYGRDRISIQVILTQSATQFFEQRYTKKIIKSSEKLNKMSQYESTPATPVTPTPGQCNMAQVVELPPHIQLWTDQDEWDAWKQRTDPVLHIELRRWADILVVAPLTANTLSKIALGLCDNLLTSVIRAWNPSYPILLAPSMVSSTFNSMMTKKQLQTIKEEMSWVTVFKPSEKVMDINGDIGLGGMMDWNEIVNKIVMKLGGYPKNN
notes: Hal3 (Sis2), S. cerevisiae, PPCDC domain (PD); expected MW with tag 29.1 kDa; also called PPCDC domain of Hal3; source: E. coli BL21 (DE3), purified (Ni2+ IMAC); alone from pET28 or co-expressed with Cab3^PD (pETDuet-1); not shown: His6, N-terminal, kept
B5: 6 × His-Vhs3^PD (domain or fragment, S. cerevisiae, UniProt Q08438 288-577, looked up)
chain: DDGKLHVLFGATGSLSVFKLKHMIRKLEEIYGRDKICIQVILTNSATKFFAMKYMRKNKKQHNSIDTSFNSTNSNAGNITGNKKKVASLEKFSIQKTSSNSAASQTNNKQEEEKQMASTTGFPSTLGGSRTYSNSSNVVSQHPQIELPAHIQFWTDQDEWDVWRQRTDPVLHIELRRWADILVVAPLTANTLAKIALGLCDNLLTSVIRAWNPTFPIFLAPSMGSGTFNSIMTKKHFRIIQEEMPWVTVFKPSEKVMGINGDIGLSGMMDANEIVGKIVVKLGGYPDVSA
notes: Vhs3, S. cerevisiae, PPCDC domain (PD), residues 288–577; Expected MW with tag 34.5 kDa; also called PPCDC domain of Vhs3; source: E. coli BL21 (DE3), purified (Ni2+ IMAC); alone from pET28a or co-expressed with Cab3^PD (pETDuet-1); not shown: His6, N-terminal, kept

The target in the series “6 × His-Vhs3^PD” is B5. Put plainly: co-purification by Ni2+ IMAC after co-expression; untagged Cab3^PD co-expressed in E. coli with 6 × His-tagged Hal3^PD and/or Vhs3^PD (binary and ternary mixtures); Ni2+ IMAC, SDS-PAGE and densitometry. The note with it: partners not purified.
The series “6 × His-Hal3^PD” concerns the target B4. The description is as above. The following applies: partners not purified.
The next series concerns the target T1, GST-Ppz1^Cter. Nature of the series: pull-down; GST-Ppz1^Cter (~6 μg) bound to glutathione agarose beads, incubated with increasing amounts of Hal3 (0.5-fold to 6-fold excess) for 1 h at 24 °C; washed with 50 mM Tris-HCl pH 7.5, 150 mM NaCl, 10% glycerol, 2 mM DTT; SDS-PAGE, Coomassie, densitometry. The note with it: both partners purified.
The next series addresses T2, 6 × His-Ppz1^Cter. Nature of the series: SEC; IMAC-purified Ppz1^Cter–Hal3 complex on Superdex 200 HR 10/30, 50 mM Tris-HCl pH 7.5, 270 mM NaCl, 2 mM DTT, 2 mM EDTA; fractions analysed by SDS-PAGE and densitometry. The note with it: both partners purified.
Series [1] deals with the molecule itself. Put plainly: SEC; purified PD proteins and co-purified mixtures on Superose 12, 50 mM phosphate pH 7.0, 150 mM NaCl, 0.4 mL/min.
Series [2] concerns the molecule itself. Nature of the series: cross-linking; purified PD protein treated with disuccinimydyl suberate (DSS) at 37 °C (15 min Hal3^PD, 40 min Vhs3^PD), SDS-PAGE on 8% gels.

Consider B1, for which, in the series with 6 × His-Vhs3^PD, the “ratio of Vhs3^PD to Cab3^PD in the co-purified binary mixture” value was at least 2 fold and the “ratio of Vhs3^PD to Cab3^PD in the co-purified ternary mixture” value was about 1. In addition, in the series with 6 × His-Hal3^PD, the “ratio of Hal3^PD to Cab3^PD in the co-purified binary mixture” value was at least 2 fold and the “ratio of Hal3^PD to Cab3^PD in the co-purified ternary mixture” value is about 2.
For B2, the “maximal ratio of bound Hal3 to GST-Ppz1^Cter” value in the series with GST-Ppz1^Cter was about 0.5.
Consider B3, for which the “stoichiometry N” value with 6 × His-Ppz1^Cter is about 1.
Turning to B4, the “stoichiometry N” value in series [1] is 6 and 12; in series [2] it was 3.
For B5, the “stoichiometry N” value in series [2] stood at 3.

As a reminder, the stoichiometry N is a count of units in the complex or per binding partner.

Source of the values: PMC4626798 (Scientific Reports, 2015).
